Patent publication US20160033523A1 (NOVOZYMES BIOPHARMA DK A S, published 2016)

B1: Soluble pig FcRn with pig beta2-microglobulin, HIS-tagged (Example 4) (receptor)
chain: ADNHRSLLYHLTAVSAPTPGAPAFWVSGWLGPQQYLSYNNLRAQAEPYGAWVWESQVSWYWEKETADLRNKQKLFLEALKTLEEGGPFTLQGLLGCELGPDNVSVPVATFALNGEEFMKFDTKLGTWDGEWPEARTIGSKWMQEPDAVNKEKTFLLYSCPHRLLGHLERGRGNLEWKEPPSMRMKARPGTAPGFSVLTCIAFSFYPPELQLRFLRNGLAAGSGESDIGPNGDGSFHAWSSLTVKSGDEHHYCCVVQHAGLAQPLTVEL
b2m: VARPPKVQVYSRHPAENGKPNYLNCYVSGFHPPQIEIDLLKNGEKMNAEQSDLSFSKDWSFYLLVHTEFTPNAVDQYSCRVKHVTLDKPKIVKWDRDH
notes: also called pFcRn; not shown: HIS-tag on the C-terminal of the beta-chain
B2: Soluble guinea pig FcRn with guinea pig beta2-microglobulin, HIS-tagged (receptor)
chain: AENHLSLLYHLTAVSSPATGSPAFWVSGWLGPQQYLSYSSLRREAEPCGAWVWETQVSWYWEMETTDLKNKESLFLEALKALGGKGPYTLQGILGCELSPDNSSVPTALFALNGEDFMEFHPENGSWTGDWPEALSISKQWEKKAEVVSKEKTFLLSSCPQRLLDHLERSRRNLEWKEPPSMRLKARPGDAGFSVLTCSAFSFYPPELQLRFLHNGLAAGTGEGGFGPNGDGSFHAWSSLTVQRGDEHNYRCLVQHAGLPQPLSVELESPAGSS
b2m: VLHAPRVQVYSRHPAENGKQNFINCYVSGFHPPQIEVELLKNGKKIDNVEMSDLSFSKDWTFYLLVHAAFTPNDSDEYSCRVSHITLSEPKIVKWDPNK
notes: Synthesized by GeneArt, expressed in HEK cells; also called gpFcRn; gpFcRN; not shown: HIS-tag on the C-terminal of the beta-chain
B3: Wild type guinea pig serum albumin (ligand)
chain: EAHKSEIAHRFNDLGEGHFKGLVLITLSQHLQKSPFEEHVKLVNEVTDFAKACVADESAQNCGKAIATLFGDKVCAIPSLRETYGELADCCAKEDPDRVECFLQHKDDNPNLPPFERPEPEALCTAFKENNDRFIGHYLYEVSRRHPYFYAPELLYYAEKYKNALTECCEAADKAACLTPKLDAIKEKALVSSAQQRLKCASLQKFGERAFKAWSVARLSQKFPKAEFAEISTIVTSLTKVTKECCHGDLLECADDRQELAKYMCEHQDSISSKLKECCVKPTLQKAHCILEIQRDELPTELPDLAVDFVEDKEVCKNFAEAKDVFLGTFLYEYSRRHPEYSIGMLLRIAKGYEAKLEKCCAEADPHACYAKVFDELQPLIDEPKKLVQQNCELFDKLGEYGFQNALAVRYTQKAPQVSTPTLVEYARKLGSVGTKCCSLPETERLSCTENYLALILNRLCILHEKTPVSERVTKCCTESLVNRRPCFSALHVDETYVPKPFHADSFTFHADICTLPEKEKQVKKQMALVELVKHKPKASEEQMKTVMGDFAAFLKKCCDADNKEACFTEDGPKLVAKCQATLA
notes: also called GPSA; guinea pig SA
B4: Wild type dog serum albumin (ligand)
chain: EAYKSEIAHRYNDLGEEHFRGLVLVAFSQYLQQCPFEDHVKLAKEVTEFAKACAAEESGANCDKSLHTLFGDKLCTVASLRDKYGDMADCCEKQEPDRNECFLAHKDDNPGFPPLVAPEPDALCAAFQDNEQLFLGKYLYEIARRHPYFYAPELLYYAQQYKGVFAECCQAADKAACLGPKIEALREKVLLSSAKERFKCASLQKFGDRAFKAWSVARLSQRFPKADFAEISKVVTDLTKVHKECCHGDLLECADDRADLAKYMCENQDSISTKLKECCDKPVLEKSQCLAEVERDELPGDLPSLAADFVEDKEVCKNYQEAKDVFLGTFLYEYARRHPEYSVSLLLRLAKEYEATLEKCCATDDPPTCYAKVLDEFKPLVDEPQNLVKTNCELFEKLGEYGFQNALLVRYTKKAPQVSTPTLVEVSRKLGKVGTKCCKKPESERMSCAEDFLSVVLNRLCVLHEKTPVSERVTKCCSESLVNRRPCFSGLEVDETYVPKEFNAETFTFHADLCTLPEAEKQVKKQTALVELLKHKPKATDEQLKTVMGDFGAFVEKCCAAENKEGCFSEEGPKLVAAAQAALV
notes: also called DSA
B5: Wild type pig serum albumin (ligand)
chain: DTYKSEIAHRFKDLGEQYFKGLVLIAFSQHLQQCPYEEHVKLVREVTEFAKTCVADESAENCDKSIHTLFGDKLCAIPSLREHYGDLADCCEKEEPERNECFLQHKNDNPDIPKLKPDPVALCADFQEDEQKFWGKYLYEIARRHPYFYAPELLYYAIIYKDVFSECCQAADKAACLLPKIEHLREKVLTSAAKQRLKCASIQKFGERAFKAWSLARLSQRFPKADFTEISKIVTDLAKVHKECCHGDLLECADDRADLAKYICENQDTISTKLKECCDKPLLEKSHCIAEAKRDELPADLNPLEHDFVEDKEVCKNYKEAKHVFLGTFLYEYSRRHPDYSVSLLLRIAKIYEATLEDCCAKEDPPACYATVFDKFQPLVDEPKNLIKQNCELFEKLGEYGFQNALIVRYTKKVPQVSTPTLVEVARKLGLVGSRCCKRPEEERLSCAEDYLSLVLNRLCVLHEKTPVSEKVTKCCTESLVNRRPCFSALTPDETYKPKEFVEGTFTFHADLCTLPEDEKQIKKQTALVELLKHKPHATEEQLRTVLGNFAAFVQKCCAAPDHEACFAVEGPKFVIEIRGILA
notes: also called PSA; pig SA
B6: Wild type rhesus monkey serum albumin (ligand)
chain: DTHKSEVAHRFKDLGEEHFKGLVLVAFSQYLQQCPFEEHVKLVNEVTEFAKTCVADESAENCDKSLHTLFGDKLCTVATLRETYGEMADCCAKQEPERNECFLQHKDDNPNLPPLVRPEVDVMCTAFHDNEATFLKKYLYEVARRHPYFYAPELLFFAARYKAAFAECCQAADKAACLLPKLDELRDEGKASSAKQRLKCASLQKFGDRAFKAWAVARLSQKFPKAEFAEVSKLVTDLTKVHTECCHGDLLECADDRADLAKYMCENQDSISSKLKECCDKPLLEKSHCLAEVENDEMPADLPSLAADYVESKDVCKNYAEAKDVFLGMFLYEYARRHPDYSVMLLLRLAKAYEATLEKCCAAADPHECYAKVFDEFQPLVEEPQNLVKQNCELFEQLGEYKFQNALLVRYTKKVPQVSTPTLVEVSRNLGKVGAKCCKLPEAKRMPCAEDYLSVVLNRLCVLHEKTPVSEKVTKCCTESLVNRRPCFSALELDEAYVPKAFNAETFTFHADMCTLSEKEKQVKKQTALVELVKHKPKATKEQLKGVMDNFAAFVEKCCKADDKEACFAEEGPKFVAASQAALA
notes: also called rmSA; rmSA Wt

Experiments:
HSA K573P = molecular target: T1, HSA K573P (human, UniProt P02768 25-609); assay: SPR, albumin over immobilized His-FcRn, pH 5.5, 1:1 Langmuir
T1 construct: Variant of mature HSA
T1 sequence (P02768 25-609 K597P): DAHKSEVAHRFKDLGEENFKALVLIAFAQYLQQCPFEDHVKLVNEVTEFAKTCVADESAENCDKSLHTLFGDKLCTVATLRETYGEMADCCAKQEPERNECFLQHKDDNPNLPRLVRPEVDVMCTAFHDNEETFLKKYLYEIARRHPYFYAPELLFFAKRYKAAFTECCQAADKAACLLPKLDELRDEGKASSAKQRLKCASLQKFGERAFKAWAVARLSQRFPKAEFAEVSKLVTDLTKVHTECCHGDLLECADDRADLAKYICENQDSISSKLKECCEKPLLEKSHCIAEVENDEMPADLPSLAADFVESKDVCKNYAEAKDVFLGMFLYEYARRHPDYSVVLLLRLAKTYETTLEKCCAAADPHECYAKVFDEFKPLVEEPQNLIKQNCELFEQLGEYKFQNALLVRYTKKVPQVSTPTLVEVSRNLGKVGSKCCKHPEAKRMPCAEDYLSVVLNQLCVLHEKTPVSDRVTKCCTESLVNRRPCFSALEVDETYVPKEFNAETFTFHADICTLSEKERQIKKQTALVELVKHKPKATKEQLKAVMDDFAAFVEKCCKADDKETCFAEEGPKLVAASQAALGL
Method: (§1) SPR experiments were carried out using a Biacore 3000 instrument (GE Healthcare). Flow cells of CM5 sensor chips were coupled with soluble FcRn from one of the following species, human (shFcRn), rat (srFcRn), mouse (smFcRn), rhesus monkey (srmFcRn), dog (dFcRn) or pig (pFcRn) (˜900-2500 resonance units (RU)) using GE Healthcare amine coupling chemistry as per the manufacturer's instructions. The coupling was performed by injecting 2 or 10 μg/ml FcRn in 10 mM sodium acetate pH 5.0 (GE healthcare). Phosphate buffer (67 mM phosphate buffer, 0.15 M NaCl, 0.005% Tween 20) at pH 6.0) was used as running buffer and dilution buffer. Regeneration of the surfaces were done using injections of HBS-EP buffer (0.01 M HEPES, 0.15 M NaCl, 3 mM EDTA, 0.005% surfactant P20) at pH 7.4 (GE Healthcare). For determination of binding kinetics, serial dilutions of albumin (10-0.3 μM) were injected over immobilized receptors at a constant flow rate (50 μl/min) at 25° C. In all experiments, data were zero adjusted and the reference cell subtracted.
(§2) The SPR assay was conducted with the following variations to the assay described in the Materials and Method section:
(§3) The soluble FcRn receptors were synthesized by GeneArt and expressed in HEK cells. The soluble FcRn contained a HIS-tag on the C-terminal of the Beta-chain instead of a GST on the heavy chain and the beta-chain used was the native beta-chain of the animal (see Materials and Method section for the corresponding sequences). The soluble FcRn was purified by a HIS trap column followed by an additional purification using an IgG column. The soluble FcRn receptor was diluted to 20 μg/mL. The phosphate buffer used as running buffer in the SPR assay was at pH 5.5 instead of pH 6.0. […] 1:1 Langmuir or Steady state model was used.

[1] = molecular target: T2, N-terminally c-myc tagged albumin variant K573P (human, UniProt P02768 25-609); assay: as above
T2 construct: Substitution numbered on mature HSA, not on the tagged chain; also called c-myc-K573P
T2 sequence (P02768 other isoform, or with tags, fused parts or gaps K573P K573P): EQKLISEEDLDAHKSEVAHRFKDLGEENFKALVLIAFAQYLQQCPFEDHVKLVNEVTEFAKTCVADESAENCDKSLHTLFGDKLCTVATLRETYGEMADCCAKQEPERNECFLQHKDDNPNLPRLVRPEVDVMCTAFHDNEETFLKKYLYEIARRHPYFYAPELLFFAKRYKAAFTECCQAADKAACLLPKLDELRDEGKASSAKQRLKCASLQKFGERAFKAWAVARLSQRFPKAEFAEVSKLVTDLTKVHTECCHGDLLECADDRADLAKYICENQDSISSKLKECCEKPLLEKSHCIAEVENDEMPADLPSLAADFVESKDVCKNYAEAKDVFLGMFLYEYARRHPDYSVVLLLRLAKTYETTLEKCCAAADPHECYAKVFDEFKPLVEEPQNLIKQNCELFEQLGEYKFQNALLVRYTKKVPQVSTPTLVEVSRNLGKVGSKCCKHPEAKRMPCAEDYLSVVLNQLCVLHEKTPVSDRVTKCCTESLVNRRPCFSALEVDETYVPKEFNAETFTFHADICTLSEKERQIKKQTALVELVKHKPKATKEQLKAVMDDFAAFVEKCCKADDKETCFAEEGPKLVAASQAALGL
Method: as §1, §2, §3

[2] = molecular target: B5; assay: SPR, albumin over immobilized His-FcRn, pH 5.5, steady state
Method: as §1, §2, §3

[3] = molecular target: T3, Wild type human serum albumin (human, UniProt P02768 25-609); assay: as above
T3 construct: also called HSA; HSA Wt
T3 sequence (P02768 25-609): as the sequence (P02768 25-609 K597P) above, with P573K counted along it
Method: as §1, §2, §3

[4] = molecular target: T4, N-terminally c-myc tagged Wt HSA (human, UniProt P02768 25-609); assay: as above
T4 construct: Secreted from yeast; a +2058 Da miscleaved leader species was reduced to below 5%; also called c-myc-HSA Wt; Cmyc-WT HSA
T4 sequence (P02768 other isoform, or with tags, fused parts or gaps): as the sequence (P02768 other isoform, or with tags, fused parts or gaps K573P K573P) above, with P583K counted along it
Method: as §1, §2, §3

[5] = molecular target: B2; assay: SPR, albumin over immobilized His-FcRn, pH 5.5, 1:1 Langmuir
Method: as §1, §2, §3

[6] = molecular target: T5, Soluble dog FcRn, GST-tagged, with human beta2-microglobulin (dog; Schistosoma japonicum; human, UniProt P08515 1-218 = GST); assay: SPR, albumin over immobilized GST-FcRn, pH 6.0, 1:1 model
T5 construct: also called dFcRn
Method: as §1

[7] = molecular target: T6, Soluble pig FcRn, GST-tagged, with human beta2-microglobulin (Example 2) (pig; Schistosoma japonicum; human, UniProt P08515 1-218 = GST); assay: as above
T6 construct: also called pFcRn; spFcRn
Method: as §1

[8] = molecular target: T5, Soluble dog FcRn, GST-tagged, with …; assay: SPR, albumin over immobilized GST-FcRn, pH 6.0, estimated from steady state
Method: as §1

[9] = molecular target: T7, Soluble rhesus monkey FcRn, GST-tagged, with human beta2-microglobulin (rhesus monkey; Schistosoma japonicum; …, UniProt P08515 1-218 = GST); assay: SPR, albumin over immobilized GST-FcRn, pH 6.0, 1:1 model
T7 construct: also called srmFcRn; soluble rhesus macaque FcRn
Method: as §1

Binder | Kd (HSA K573P) [nM] | koff (HSA K573P) [s⁻¹] | kon (HSA K573P) [M⁻¹ s⁻¹] | Kd [1] [nM] | koff [1] [s⁻¹] | kon [1] [M⁻¹ s⁻¹] | Kd [6] [nM] | koff [6] [s⁻¹] | kon [6] [M⁻¹ s⁻¹] | Kd [7] [nM] | koff [7] [s⁻¹] | kon [7] [M⁻¹ s⁻¹] | also measured
B1 | 1900 | 0.0622 | 32700 | 1300 | 0.0401 | 31200 | – | – | – | – | – | – | Kd [2]: 210000 nM; Kd [3]: 232000 nM; Kd [4]: 468000 nM
B2 | 190000 | 0.297 | 1500 | 360000 | 0.181 | 500 | – | – | – | – | – | – | –
B3 | – | – | – | – | – | – | – | – | – | – | – | – | Kd [5]: 1100 nM; koff [5]: 0.0419 s⁻¹; kon [5]: 36200 M⁻¹ s⁻¹
B4 | – | – | – | – | – | – | 280 | 0.0034 | 12000 | 1400 | 0.013 | 9200 | –
B5 | – | – | – | – | – | – | – | – | – | 2700 | 0.053 | 20000 | Kd [8]: 23000 nM
B6 | – | – | – | – | – | – | 1540 | 0.02 | 13000 | 1200 | 0.012 | 10000 | Kd [9]: 2400 nM; koff [9]: 0.013 s⁻¹; kon [9]: 5300 M⁻¹ s⁻¹
